Holding throughout (assay): fluorescence polarisation
For assay [1], the target named is KL6-7_D3fA.
Assay [2] has as its target Bim_A2eT_E2gG (UniProt O43521).
Assay [3] deals with BL6-22_Y4eK.
Assay [4] deals with Bim_A2eT (UniProt O43521).
In assay [5] the target is KL6-7_Y4eK.
In assay [6] the target is Bim_R3bS (UniProt O43521).
The target of assay [7] is Bim BH3 peptide (23 residues, fluoresceinated) (UniProt O43521).

One may read the Kd as the constant that tells how readily two partners part at equilibrium. High values mean a looser complex, low ones a tighter complex.

Bfl-1 (human), c-myc-tagged, sequence (Q16548 whole entry): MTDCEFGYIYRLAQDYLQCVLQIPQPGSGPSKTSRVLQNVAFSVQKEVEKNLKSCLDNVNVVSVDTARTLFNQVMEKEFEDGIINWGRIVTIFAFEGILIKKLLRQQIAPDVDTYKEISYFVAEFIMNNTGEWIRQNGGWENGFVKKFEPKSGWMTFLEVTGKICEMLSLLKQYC
Bcl-w (human), c-myc-tagged, sequence (Q92843 whole entry): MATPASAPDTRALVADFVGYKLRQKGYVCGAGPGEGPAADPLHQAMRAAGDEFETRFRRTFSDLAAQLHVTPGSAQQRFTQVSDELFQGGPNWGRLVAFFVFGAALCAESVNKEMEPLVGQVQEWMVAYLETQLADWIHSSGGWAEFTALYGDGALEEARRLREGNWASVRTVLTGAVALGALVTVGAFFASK

As for “BHRF1 (Epstein-Barr virus Bcl-2 homolog), c-myc-tagged (from UniProt P03182 1-191) (natural protein)”, the Kd in assay [1] was over 1000 nM; in assay [2], over 1000 nM; in assay [3], 30 nM; in assay [4], 64 nM; in assay [5] it was over 1000 nM.
As for “Bcl-2 (human), c-myc-tagged (from UniProt P10415 1-239) (natural protein)”, the figures for the equilibrium dissociation constant (Kd) in assay [2], in assay [4] and in assay [6] were 150 nM, 44 nM and 7.2 nM, respectively.
“Bcl-w (human), c-myc-tagged (from UniProt Q92843 1-193) (natural protein)”: the Kd came out at 98 nM in assay [2], 40 nM in assay [4] and 18 nM in assay [6].
Consider “Bcl-xL (human), c-myc-tagged (from UniProt Q07817-1 1-233) (natural protein)”, for which the Kd in assay [2] came to 42 nM; in assay [4], 18 nM; in assay [6], 3.8 nM.
With “Bfl-1 (human), c-myc-tagged (from UniProt Q16548 1-175) (natural protein)”, the figures for the Kd in assay [2], in assay [4] and in assay [6] were 260 nM, 32 nM and 5.2 nM, respectively.
For “KSBcl-2 (Kaposi's sarcoma-associated herpesvirus Bcl-2 homolog), c-myc-tagged (from UniProt P90504 1-175) (natural protein)”, the Kd in assay [2] worked out at 1.1 nM; in assay [4], 1.8 nM; in assay [6], 1.5 nM.
For “M11 (murine gamma herpesvirus γHV68 Bcl-2 homolog), BAP- and His6-tagged (from UniProt P89884 1-171) (natural protein)”, the Kd in assay [2] was found to be 15 nM; in assay [4], 78 nM.
As to “Mcl-1 (human), c-myc-tagged (from UniProt Q07820 1-350) (natural protein)”, the Kd is over 5000 nM in assay [1]; 1.6 nM in assay [2]; under 1 nM in assay [7]; 0.62 nM in assay [4]; 7800 nM in assay [5]; under 1 nM in assay [6].

Source of the values: PMC4520770.
